Experimental data reported in patent US9821037B1, “Compounds and method of use as anti-infection compounds and therapeutic agents to regulate cholesterol metabolism” (University of Kentucky Research Foundation, priority 2013, dated 2017).

B1: YSS-92: the 92 C-terminal amino acids of YSS (protein, UniProt P29704 353-444, looked up, fragment)
chain: KSKLAVQDPNFLKLNIQISKIEQFMEEMYQDKLPPNVKPNETPIFLKVKERSRYDDELVPTQQEEEYKFNMVLSIILSVLLGFYYIYTLHRA
B2: YSS: squalene synthase from S. cerevisiae (protein, UniProt P29704 1-444, looked up)
chain: MGKLLQLALHPVEMKAALKLKFCRTPLFSIYDQSTSPYLLHCFELLNLTSRSFAAVIRELHPELRNCVTLFYLILRALDTIEDDMSIEHDLKIDLLRHFHEKLLLTKWSFDGNAPDVKDRAVLTDFESILIEFHKLKPEYQEVIKEITEKMGNGMADYILDENYNLNGLQTVHDYDVYCHYVAGLVGDGLTRLIVIAKFANESLYSNEQLYESMGLFLQKTNIIRDYNEDLVDGRSFWPKEIWSQYAPQLKDFMKPENEQLGLDCINHLVLNALSHVIDVLTYLAGIHEQSTFQFCAIPQVMAIATLALVFNNREVLHGNVKIRKGTTCYLILKSRTLRGCVEIFDYYLRDIKSKLAVQDPNFLKLNIQISKIEQFMEEMYQDKLPPNVKPNETPIFLKVKERSRYDDELVPTQQEEEYKFNMVLSIILSVLLGFYYIYTLHRA
modifications: full-length
notes: squalene synthase from S. cerevisiae

Key:
BY4741 yeast = assay: Saccharomyces cerevisiae growth inhibition assay (galactose-inducible over-expression of C-terminus constructs); format: cell-based; details: 4 days, 28° C.; for yeast growth with gene expression induced: BY4741, galactose as carbon source
Procedure: Constructs were created in which the C-terminal 92 AA of YSS, the C-terminal 64 AA of YSS, the C-terminal 66 AA of ASS, the C-terminal 92 AA of YSS in which the 26 AA domain is replaced by the corresponding of ASS or BSS, and the C-terminus of either ASS or BSS in which the 26 AA domain is replaced by the corresponding of YSS were cloned into the pESC-Ura (Gal1 and Gal10 promoters) vector. Constructs were transformed into BY4741 yeast and positive transformants were grown in 2 mL of Yeast-Synthetic Drop-out medium for 4 days. Serial dilutions (Corresponding to O.D.600=0.5, 0.1, 0.02, and 0.004) were plated on selection media containing either glucose or galactose as the carbon source. Pictures were taken after 4 days growth at 28° C.
To test this possibility, a gene coding for the 92 carboxy terminal residues of the yeast squalene synthase was inserted into a galactose inducible expression vector and the recombinant vector introduced into a wild type yeast (BY4741) (FIG. 7). When grown on glucose, expression of the 92 carboxy-terminal squalene synthase gene was suppressed and the transformed yeast grew normally. […] If a plant complementary carboxy-terminal gene was substituted for the yeast, no adverse effects were noted. When the 26 amino acid linker domain was deleted from the yeast gene construct, growth also was not impaired.
Constructs to be tested in S. cerevisiae were created using the pESC-Leu vector (Agilent) which harbors the Gal1/Gal10 divergent promoter to allow for galactose induction of gene expression. Primers used to create these constructs are listed in Table 4 (restriction sites, if any, in bold). YSS-92 was created by PCR amplifying a portion of the YSS gene corresponding to the 92 C-terminal amino acids using the primer sets, YSS-92 EcoRI For and YSS NotI Rev, and YSS-92 BamHI For and YSS HindIII Rev, and cloning into pESC-Leu with the corresponding restriction enzyme sites. ASS-66 and YSS-64 were created in the same manner. ASS-YSS and YSS-ASS were created in a similar manner using YSS-ASS-YSS or ASS-YSS-ASS as the templates for PCR, respectively. […]

[1] = system: erg9 knockout yeast line CALI7-1; assay: erg9 complementation assay (restoration of ergosterol prototrophy); format: cell-based, S. cerevisiae; details: construct expressed in CALI7-1; plates lacking ergosterol, 28° C., 72 h
Description: Various squalene synthases were cloned into the yeast expression vector, Yep352-ADH1, including those from S. cerevisiae (YSS), B. braunii (BSS), N. benthamiana (TSS), A. thaliana (ASS), and R. norvegicus (RSS), as well as a C-terminal truncated form of YSS in which 24 amino acids comprising the ER membrane-spanning region were eliminated (YSStr). These constructs were transformed into the yeast line CALI7-1, which has been selected for high level FPP biosynthesis (10) and has an erg9 knockout mutation. It is unable to synthesize sterols de novo and is dependent on exogenous ergosterol for growth. […] To evaluate the encoded enzymes for catalytic activity, extracts prepared from the CALI7-1 yeast lines were assayed for squalene synthase enzyme activity. Constructs were also expressed in TN-7 yeast line and cultures were grown in liquid media with ergosterol and subsequently analyzed for squalene accumulation. Squalene levels were determined in TN-7 because in this yeast line, there is no possibility of squalene feeding into the ergosterol biosynthetic pathway. This allows for accurate comparisons of squalene production by the various SS enzymes.
The Cali7-1 yeast line, which has an erg9 deletion so that it cannot synthesize sterols de novo and requires exogenous ergosterol for growth, was used for these purposes (10). […]

Molecule	yeast growth with gene expression induced (BY4741 yeast)	yeast growth with gene expression suppressed (BY4741 yeast; BY4741, glucose as carbon source)	ability to complement the erg9 deletion (growth without exogenous ergosterol) [1]
KSKLAVQDPNFLKLNIQISKIEQFME (listed as Saccharomyces cerevisiae) [26 amino acid stretch of YSS, 26 amino acid linker-domain of squalene synthase from S. cerevisiae]	can inhibit the growth of yeast		
B1	growth was severely arrested	grew normally	
B2			could restore ergosterol prototrophy
